The values that follow are results of earlier work, collected in publication PMC10280637.

For the data set, the target named is IL-17A (Homo sapiens) (UniProt Q16552).
Chain of IL-17A (Homo sapiens) (Q16552 24-155): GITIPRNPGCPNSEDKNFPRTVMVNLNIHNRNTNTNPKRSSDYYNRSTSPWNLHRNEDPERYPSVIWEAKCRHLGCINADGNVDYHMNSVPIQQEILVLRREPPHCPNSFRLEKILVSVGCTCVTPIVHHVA

Usually Kd stands for a measure of binding affinity in units of concentration. As to Secukinumab, the Kd is 60 pM.
